In PMC7261152 (Nucleic Acids Research, 2020):

Target: T1, human BCMA-Fc fusion protein (human, UniProt Q02223 1-54)
T1 sequence (looked up): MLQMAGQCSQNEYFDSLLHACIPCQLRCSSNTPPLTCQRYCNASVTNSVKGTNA
Experiment: ELISA

binding result: binds
B1: anti-BCMA DVD-IgG1 (2) (bispecific antibody)
light: DIQMTQSPSSLSASVGDRVTITCSASQDISNYLNWYQQKPGKAPKLLIYYTSNLHSGVPSRFSGSGSGTDFTLTISSLQPEDFATYYCQQYRKLPWTFGQGTKLEIKASTKGPELQMTQSPSSLSASVGDRVTITCRSSQSLLHTYGSPYLNWYLQKPGQSPKLLIYKVSNRFSGVPSRFSGSGSGTDFTLTISSLQPEDFAVYFCSQGTHLPYTFGGGTKVEIKRTVAAPSVFIFPPSDEQLKSGTASVVCLLNNFYPREAKVQWKVDNALQSGNSQESVTEQDSKDSTYSLSSTLTLSKADYEKHKVYACEVTHQGLSSPVTKSFNRGEC
heavy: not shown
